± gives the standard deviation of the averaged measurements.
Experiment: total protein half-life in vivo (active degradation + dilution); higher = more stable protein
[1] = E. coli NCM3722 delta-clpP delta-lon delta-hslV, growth: N-lim chemostat, doubling time 6 h
[2] = E. coli NCM3722 delta-hslV, growth: N-lim chemostat, doubling time 6 h
[3] = E. coli NCM3722 delta-lon, growth: N-lim chemostat, doubling time 6 h
[4] = wild type E. coli NCM3722, growth: C-lim chemostat, doubling time 3 h
[5] = wild type E. coli NCM3722, growth: C-lim chemostat, doubling time 6 h
[6] = wild type E. coli NCM3722, growth: C-lim chemostat, doubling time 12 h
[7] = wild type E. coli NCM3722, growth: N-lim chemostat, doubling time 6 h
[8] = wild type E. coli NCM3722, growth: N-lim chemostat, doubling time 12 h
[9] = wild type E. coli NCM3722, growth: P-lim chemostat, doubling time 6 h
[10] = wild type E. coli NCM3722, growth: P-lim chemostat, doubling time 12 h
[11] = E. coli NCM3722 delta-clpP, growth: N-lim chemostat, doubling time 6 h
[12] = E. coli NCM3722 delta-smpB, growth: N-lim chemostat, doubling time 6 h

Sequence	total protein half-life in vivo [1] [h]	total protein half-life in vivo [2] [h]	total protein half-life in vivo [3] [h]	total protein half-life in vivo [4] [h]	total protein half-life in vivo [5] [h]	total protein half-life in vivo [6] [h]	total protein half-life in vivo [7] [h]	total protein half-life in vivo [8] [h]	total protein half-life in vivo [9] [h]	total protein half-life in vivo [10] [h]	total protein half-life in vivo [11] [h]	total protein half-life in vivo [12] [h]
MIREAQRSELPAILELWLESTTWGHPFIKANYWRDCIPLVRDAYLANAQNWVWEEDGKLLGFVSIMEGRFLAAMFVAPKAVRRGIGKALMQYVQQRHPHLMLEVYQKNQPAINFYQAQGFHIVDCAWQDETQLPTWIMSWPVVQTL	5.19	2.72	3.34 ± 0.79	> 4	3.55	4.76	2.33 ± 0.12	3.08 ± 0.13	4.08	6.74 ± 0.19		
MIRKSATGVIVALAVIWGGGTWYTGTQIQPGVEKFIKDFNDAKKKGEHAYDMTLSYQNFDKGFFNSRFQMQMTFDNGAPDLNIKPGQKVVFDVDVEHGPLPITMLMHGNVIPALAAAKVNLVNNELTQPLFIAAKNKSPVEATLRFAFGGSFSTTLDVAPAEYGKFSFGEGQFTFNGDGSSLSNLDIEGKVEDIVLQLSPMNKVTAKSFTIDSLARLEEKKFPVGESESKFNQINIINHGEDVAQIDAFVAKTRLDRVKDKDYINVNLTYELDKLTKGNQQLGSGEWSLIAESIDPSAVRQFIIQYNIAMQKQLAAHPELANDEVALQEVNAALFKEYLPLLQKSEPTIKQPVRWKNALGELNANLDISIADPAKSSSSTNKDIKSLNFDVKLPLNVVTETAKQLNLSEGMDAEKAQKQADKQISGMMTLGQMFQLITIDNNTASLQLRYTPGKVVFNGQEMSEEEFMSRAGRFVH		5.74	6.55	2.57			6.18		5.4			
MIRLSEQSPLGTGRHRKCYAHPEDAQRCIKIVYHRGDGGDKEIRRELKYYAHLGRRLKDWSGIPRYHGTVETDCGTGYVYDVIADFDGKPSITLTEFAEQCRYEEDIAQLRQLLKQLKRYLQDNRIVTMSLKPQNILCHRISESEVIPVVCDNIGESTLIPLATWSKWCCLRKQERLWKRFIAQPALAIALQKDLQPRESKTLALTSREA	3.47			3.22	7.68	10.7						
MIRNVLLAFMICSGMTLLGGCSSVMSHTGGKEGTYPGTRASATMIGDDETNWGTKSLAILDMPFTAVMDTLLLPWDVFRKDSSVRSRVEKSEANAQATNAVIPPARMPDN [P0ADM4]	5.58 ± 0.24	5.46 ± 0.49	5.9 ± 0.34	2.6 ± 0.12	4.71 ± 0.37	8.87 ± 1.3	5.84 ± 0.094	11 ± 1.4	4.8 ± 0.24	11.1 ± 0.31	6 ± 0.66	4.43 ± 0.12
MIRQRRRALTPEQQQEMGQQAATRMMTYPPVVMAHTVAVFLSFDGELDTQPLIEQLWRAGKRVYLPVLHPFSAGNLLFLNYHPQSELVMNRLKIHEPKLDVRDVLPLSRLDVLITPLVAFDEYGQRLGMGGGFYDRTLQNWQHYKTQPVGYAHDCQLVEKLPVEEWDIPLPAVVTPSKVWEW [P0AC28]	4.93 ± 0.7		2.6 ± 0.54	2.75 ± 0.068	4.81 ± 0.41	7.66 ± 1.6	2.59	4.35	3.85 ± 0.24	7.8 ± 0.34	3.88 ± 0.18	2.58
MISANRPIINLDLDLLRTFVAVADLNTFAAAAAAVCRTQSAVSQQMQRLEQLVGKELFARHGRNKLLTEHGIQLLGYARKILRFNDEACSSLMFSNLQGVLTIGASDESADTILPFLLNRVSSVYPKLALDVRVKRNAYMAEMLESQEVDLMVTTHRPSAFKALNLRTSPTHWYCAAEYILQKGEPIPLVLLDDPSPFRDMVLATLNKADIPWRLAYVASTLPAVRAAVKAGLGVTARPVEMMSPDLRVLSGVDGLPPLPDTEYLLCYDPSSNNELAQVIYQAMESYHNPWQYSPMSAPEGDDSLLIERDIE		2.546 ± 0.023	3.25	2.45 ± 0.064	4.7 ± 0.26	7.62 ± 0.41	3.28 ± 1.1	3.66 ± 0.051	3.43 ± 0.079	6.34 ± 0.77	5.56 ± 0.33	2.713 ± 0.022
MISDSKLLASAAWDAQSLNELKAKAGEDPAANIRPVARQVEGMFVQMMLKSMRDALPKDGLFSSEHTRLYTSMYDQQIAQQMTAGKGLGLAEMMVKQMTPEQPLPEESTPAAPMKFPLETVVRYQNQALSQLVQKAVPRNYDDSLPGDSKAFLAQLSLPAQLASQQSGVPHHLILAQAALESGWGQRQIRRENGEPSYNLFGVKASGNWKGPVTEITTTEYENGEAKKVKAKFRVYSSYLEALSDYVGLLTRNPRYAAVTTAASAEQGAQALQDAGYATDPHYARKLTNMIQQMKSISDKVSKTYSMNIDNLF				0.391								
MISRVTEALSKVKGSMGSHERHALPGVIGDDLLRFGKLPLCLFICIILTAVTVVTTAHHTRLLTAQREQLVLERDALDIEWRNLILEENALGDHSRVERIATEKLQMQHVDPSQENIVVQK [P0AEN4]	4.86 ± 0.82	2.91	4.25 ± 0.28	2.6 ± 0.074	3.85	7.71 ± 1.4	4.3 ± 0.56	5.19 ± 0.39	4.04 ± 0.16	5.75 ± 1.9	3.72 ± 0.074	3.44 ± 0.1
MISSLWIAKTGLDAQQTNMDVIANNLANVSTNGFKRQRAVFEDLLYQTIRQPGAQSSEQTTLPSGLQIGTGVRPVATERLHSQGNLSQTNNSKDVAIKGQGFFQVMLPDGSSAYTRDGSFQVDQNGQLVTAGGFQVQPAITIPANALSITIGRDGVVSVTQQGQAAPVQVGQLNLTTFMNDTGLESIGENLYTETQSSGAPNESTPGLNGAGLLYQGYVETSNVNVAEELVNMIQVQRAYEINSKAVSTTDQMLQKLTQL [P0ABX5]	4.91 ± 2.6			1.53 ± 0.27	5.1 ± 3.6	6.45 ± 1.9					> 8	
MISVFDIFKIGIGPSSSHTVGPMKAGKQFTDDLIARNLLKDVTRVVVDVYGSLSLTGKGHHTDIAIIMGLAGNLPDTVDIDSIPSFIQDVNTHGRLMLANGQHEVEFPVDQCMNFHADNLSLHENGMRITALAGDKVVYSQTYYSIGGGFIVDEEHFGQQDSAPVEVPYPYSSAADLQKHCQETGLSLSGLMMKNELALHSKEELEQHLANVWEVMRGGIERGISTEGVLPGKLRVPRRAAALRRMLVSQDKTTTDPMAVVDWINMFALAVNEENAAGGRVVTAPTNGACGIIPAVLAYYDKFIREVNANSLARYLLVASAIGSLYKMNASISGAEVGCQGEVGVACSMAAAGLAELLGASPAQVCIAAEIAMEHNLGLTCDPVAGQVQVPCIERNAIAAVKAVNAARMALRRTSEPRVCLDKVIETMYETGKDMNAKYRETSRGGLAMKIVACD	3.9											

— the supplement of paper PMC11246515
